Drawing on PMC3642155, this text covers Kd for 3 molecules.

This data set addresses T7 RNA polymerase (UniProt P00573 1-883). As to the kind of experiment: filter binding.

T7 RNA polymerase, sequence (P00573 whole entry): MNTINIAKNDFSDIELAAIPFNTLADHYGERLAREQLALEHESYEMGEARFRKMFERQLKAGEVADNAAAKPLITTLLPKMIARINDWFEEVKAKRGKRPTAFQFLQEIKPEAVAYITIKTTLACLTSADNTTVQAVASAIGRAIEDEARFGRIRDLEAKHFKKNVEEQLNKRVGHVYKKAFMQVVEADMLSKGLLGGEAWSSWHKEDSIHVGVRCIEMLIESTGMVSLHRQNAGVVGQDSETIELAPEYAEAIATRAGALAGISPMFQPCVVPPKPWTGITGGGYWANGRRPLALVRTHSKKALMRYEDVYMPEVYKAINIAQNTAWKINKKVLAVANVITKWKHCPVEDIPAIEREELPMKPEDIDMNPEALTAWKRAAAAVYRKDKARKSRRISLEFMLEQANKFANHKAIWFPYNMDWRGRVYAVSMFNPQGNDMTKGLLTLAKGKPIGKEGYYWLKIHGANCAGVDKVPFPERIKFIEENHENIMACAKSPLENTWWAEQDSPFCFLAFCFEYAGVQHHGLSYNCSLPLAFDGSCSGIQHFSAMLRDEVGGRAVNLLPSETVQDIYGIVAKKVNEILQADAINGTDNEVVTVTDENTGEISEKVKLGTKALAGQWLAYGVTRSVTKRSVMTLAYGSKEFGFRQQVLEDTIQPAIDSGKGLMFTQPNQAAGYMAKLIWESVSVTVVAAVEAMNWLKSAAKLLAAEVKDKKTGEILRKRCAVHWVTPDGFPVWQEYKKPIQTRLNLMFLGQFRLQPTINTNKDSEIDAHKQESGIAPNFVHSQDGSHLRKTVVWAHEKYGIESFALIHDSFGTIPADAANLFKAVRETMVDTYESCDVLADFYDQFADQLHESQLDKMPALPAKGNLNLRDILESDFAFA

As a reminder, the Kd is a measure of binding affinity in units of concentration. Read a low Kd as tighter binding. Molecule GUGUAGUGUAAGUCAAUUCUACUUUCGUUGCAGCCCAC (structured_RNA) [T06-38] came in with a Kd of 10.5 ± 2.1 nM.

Take GCGUAAGUCAAUUCCACUAUCAUUGCUGC (structured_RNA) [T230-29]: the Kd amounted to 2.9 ± 0.9 nM.

B1: T06 (structured_RNA)
RNA: GAGGAUGGCAGCGGAGAGGAAUGGUGUAGUGUAAGUCAAUUCUACUUUCGUUGCAGCCCACACCACUCUCC
B1 returned an equilibrium dissociation constant (Kd) of 8 ± 2.4 nM.
